Biological target: intC-ZF1-NLS-HA
Assay: cell-based or functional assay

3xFLAG-NLS-VP64-intN showed a rec: Reconstitution of split TFs (fitted based on split inteins), model rate constant fitted to reporter data of 0.34 U^-1 h^-1.

— patent US20230348892A1
